In IntAct's records for PubMed 20581830:

B1: Interferon regulatory factor 3 (Homo sapiens), Q14653 (parent)
chain: MGTPKPRILPWLVSQLDLGQLEGVAWVNKSRTRFRIPWKHGLRQDAQQEDFGIFQAWAEATGAYVPGRDKPDLPTWKRNFRSALNRKEGLRLAEDRSKDPHDPHKIYEFVNSGVGDFSQPDTSPDTNGGGSTSDTQEDILDELLGNMVLAPLPDPGPPSLAVAPEPCPQPLRSPSLDNPTPFPNLGPSENPLKRLLVPGEEWEFEVTAFYRGRQVFQQTISCPEGLRLVGSEVGDRTLPGWPVTLPDPGMSLTDRGVMSYVRHVLSCLGGGLALWRAGQWLWAQRLGHCHTYWAVSEELLPNSGHGPDGEVPKDKEGGVFDLGPFIVDLITFTEGSGRSPRYALWFCVGESWPQDQPWTKRLVMVKVVPTCLRALVEMARVGGASSLENTVDLHISNSHPLSLTSDQYKAYLQDLVEGMDFQGPGES

Variants of: B1
Conditions: with cbp_human CREBBP

**Q.** How did the “effect of a mutation on the interaction” value turn out when MGTPKPRILPWLVSQLDLGQLEGVAWVNKSRTRFRIPWKHGLRQDAQQEDFGIFQAWAEATGAYVPGRDKPDLPTWKRNFRSALNRKEGLRLAEDRSKDPHDPHKIYEFVNSGVGDFSQPDTSPDTNGGGSTSDTQEDILDELLGNMVLAPLPDPGPPSLAVAPEPCPQPLRSPSLDNPTPFPNLGPSENPLKRLLVPGEEWEFEVTAFYRGRQVFQQTISCPEGLRLVGSEVGDRTLPGWPVTLPDPGMSLTDRGVMSYVRHVLSCLGGGLALWRAGQWLWAQRLGHCHTYWAVSEELLPNSGHGPDGEVPKDKEGGVFDLGPFIVDLITFTEGSGRSPRYALWFCVGESWPQDQPWTKRLVMVKVVPTCLRALVEMARVGGASSLENTVDLHIDNDHPLDLDDDQYKAYLQDLVEGMDFQGPGES [S396D;S398D;S402D;T404D;S405D] was run?
**A.** increasing interaction strength
